Target: CD3ε homodimer protein (human, UniProt P07766 23-126, limits assumed)
Assay: SPR, immobilized CD3ε homodimer;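 also: biacore T200 surface plasmon resonance at 25 °C, antibody variants flowed as analytes over amine-coupled CD3ε homodimer on a CM4 chip, variant binding amount divided by that of GLS3000 antibody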

Chain of CD3ε homodimer protein (P07766 23-126 limits assumed): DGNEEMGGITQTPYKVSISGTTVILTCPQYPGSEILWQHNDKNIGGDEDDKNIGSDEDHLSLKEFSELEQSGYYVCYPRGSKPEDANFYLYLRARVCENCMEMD

Binder | ratio of amounts bound (vs GLS3000)
GLS3000 N53D (antibody, name in Kabat numbering, V domains shown, one-arm format as m2) VH: QVQLVESGGGVVQPGRSLRLSCAASGFTFSNAWMHWVRQAPGKGLEWVAQIKAKSNNYATYYAESVKGRFTISRDDSKNSLYLQMNSLKTEDTAVYYCRYVHYGAYYGVDAWGQGTTVTVSS VL: DIVMTQSPLSLPVTPGEPASISCRSSQSLVHSNRNTYLHWYQQKPGQAPRLLIYKVSDRFSGVPDRFSGSGSGTDFTLKISRVEAEDVGVYYCGQGTQVPYTFGQGTKLEIK | 0.34
GLS3000 N53E (antibody, name in Kabat numbering, V domains shown, one-arm format as m2) VH: QVQLVESGGGVVQPGRSLRLSCAASGFTFSNAWMHWVRQAPGKGLEWVAQIKAKSNNYATYYAESVKGRFTISRDDSKNSLYLQMNSLKTEDTAVYYCRYVHYGAYYGVDAWGQGTTVTVSS VL: DIVMTQSPLSLPVTPGEPASISCRSSQSLVHSNRNTYLHWYQQKPGQAPRLLIYKVSERFSGVPDRFSGSGSGTDFTLKISRVEAEDVGVYYCGQGTQVPYTFGQGTKLEIK | 0.54
GLS3000 N53H (antibody, name in Kabat numbering, V domains shown, one-arm format as m2) VH: QVQLVESGGGVVQPGRSLRLSCAASGFTFSNAWMHWVRQAPGKGLEWVAQIKAKSNNYATYYAESVKGRFTISRDDSKNSLYLQMNSLKTEDTAVYYCRYVHYGAYYGVDAWGQGTTVTVSS VL: DIVMTQSPLSLPVTPGEPASISCRSSQSLVHSNRNTYLHWYQQKPGQAPRLLIYKVSHRFSGVPDRFSGSGSGTDFTLKISRVEAEDVGVYYCGQGTQVPYTFGQGTKLEIK | 1.18
GLS3000 N53L (antibody, name in Kabat numbering, V domains shown, one-arm format as m2) VH: QVQLVESGGGVVQPGRSLRLSCAASGFTFSNAWMHWVRQAPGKGLEWVAQIKAKSNNYATYYAESVKGRFTISRDDSKNSLYLQMNSLKTEDTAVYYCRYVHYGAYYGVDAWGQGTTVTVSS VL: DIVMTQSPLSLPVTPGEPASISCRSSQSLVHSNRNTYLHWYQQKPGQAPRLLIYKVSLRFSGVPDRFSGSGSGTDFTLKISRVEAEDVGVYYCGQGTQVPYTFGQGTKLEIK | 0.56
GLS3000 N53G (antibody, name in Kabat numbering, V domains shown, one-arm format as m2) VH: QVQLVESGGGVVQPGRSLRLSCAASGFTFSNAWMHWVRQAPGKGLEWVAQIKAKSNNYATYYAESVKGRFTISRDDSKNSLYLQMNSLKTEDTAVYYCRYVHYGAYYGVDAWGQGTTVTVSS VL: DIVMTQSPLSLPVTPGEPASISCRSSQSLVHSNRNTYLHWYQQKPGQAPRLLIYKVSGRFSGVPDRFSGSGSGTDFTLKISRVEAEDVGVYYCGQGTQVPYTFGQGTKLEIK | 0.76
GLS3000 N53K (antibody, name in Kabat numbering, V domains shown, one-arm format as m2) VH: QVQLVESGGGVVQPGRSLRLSCAASGFTFSNAWMHWVRQAPGKGLEWVAQIKAKSNNYATYYAESVKGRFTISRDDSKNSLYLQMNSLKTEDTAVYYCRYVHYGAYYGVDAWGQGTTVTVSS VL: DIVMTQSPLSLPVTPGEPASISCRSSQSLVHSNRNTYLHWYQQKPGQAPRLLIYKVSKRFSGVPDRFSGSGSGTDFTLKISRVEAEDVGVYYCGQGTQVPYTFGQGTKLEIK | 1.08
GLS3000 N53F (antibody, name in Kabat numbering, V domains shown, one-arm format as m2) VH: QVQLVESGGGVVQPGRSLRLSCAASGFTFSNAWMHWVRQAPGKGLEWVAQIKAKSNNYATYYAESVKGRFTISRDDSKNSLYLQMNSLKTEDTAVYYCRYVHYGAYYGVDAWGQGTTVTVSS VL: DIVMTQSPLSLPVTPGEPASISCRSSQSLVHSNRNTYLHWYQQKPGQAPRLLIYKVSFRFSGVPDRFSGSGSGTDFTLKISRVEAEDVGVYYCGQGTQVPYTFGQGTKLEIK | 0.69
GLS3000 N53M (antibody, name in Kabat numbering, V domains shown, one-arm format as m2) VH: QVQLVESGGGVVQPGRSLRLSCAASGFTFSNAWMHWVRQAPGKGLEWVAQIKAKSNNYATYYAESVKGRFTISRDDSKNSLYLQMNSLKTEDTAVYYCRYVHYGAYYGVDAWGQGTTVTVSS VL: DIVMTQSPLSLPVTPGEPASISCRSSQSLVHSNRNTYLHWYQQKPGQAPRLLIYKVSMRFSGVPDRFSGSGSGTDFTLKISRVEAEDVGVYYCGQGTQVPYTFGQGTKLEIK | 0.62
GLS3000 N53I (antibody, name in Kabat numbering, V domains shown, one-arm format as m2) VH: QVQLVESGGGVVQPGRSLRLSCAASGFTFSNAWMHWVRQAPGKGLEWVAQIKAKSNNYATYYAESVKGRFTISRDDSKNSLYLQMNSLKTEDTAVYYCRYVHYGAYYGVDAWGQGTTVTVSS VL: DIVMTQSPLSLPVTPGEPASISCRSSQSLVHSNRNTYLHWYQQKPGQAPRLLIYKVSIRFSGVPDRFSGSGSGTDFTLKISRVEAEDVGVYYCGQGTQVPYTFGQGTKLEIK | 0.5

The remaining lines, values ahead:

ratio of amounts bound (vs GLS3000) | Binder
0.81 | GLS3000 N53W (antibody, name in Kabat numbering, V domains shown, one-arm format as m2) VH: QVQLVESGGGVVQPGRSLRLSCAASGFTFSNAWMHWVRQAPGKGLEWVAQIKAKSNNYATYYAESVKGRFTISRDDSKNSLYLQMNSLKTEDTAVYYCRYVHYGAYYGVDAWGQGTTVTVSS VL: DIVMTQSPLSLPVTPGEPASISCRSSQSLVHSNRNTYLHWYQQKPGQAPRLLIYKVSWRFSGVPDRFSGSGSGTDFTLKISRVEAEDVGVYYCGQGTQVPYTFGQGTKLEIK
0.39 | GLS3000 P95E (antibody, name in Kabat numbering, V domains shown, one-arm format as m2) VH: QVQLVESGGGVVQPGRSLRLSCAASGFTFSNAWMHWVRQAPGKGLEWVAQIKAKSNNYATYYAESVKGRFTISRDDSKNSLYLQMNSLKTEDTAVYYCRYVHYGAYYGVDAWGQGTTVTVSS VL: DIVMTQSPLSLPVTPGEPASISCRSSQSLVHSNRNTYLHWYQQKPGQAPRLLIYKVSNRFSGVPDRFSGSGSGTDFTLKISRVEAEDVGVYYCGQGTQVEYTFGQGTKLEIK
0.24 | GLS3000 P95D (antibody, name in Kabat numbering, V domains shown, one-arm format as m2) VH: QVQLVESGGGVVQPGRSLRLSCAASGFTFSNAWMHWVRQAPGKGLEWVAQIKAKSNNYATYYAESVKGRFTISRDDSKNSLYLQMNSLKTEDTAVYYCRYVHYGAYYGVDAWGQGTTVTVSS VL: DIVMTQSPLSLPVTPGEPASISCRSSQSLVHSNRNTYLHWYQQKPGQAPRLLIYKVSNRFSGVPDRFSGSGSGTDFTLKISRVEAEDVGVYYCGQGTQVDYTFGQGTKLEIK
0.69 | GLS3000 N53S (antibody, name in Kabat numbering, V domains shown, one-arm format as m2) VH: QVQLVESGGGVVQPGRSLRLSCAASGFTFSNAWMHWVRQAPGKGLEWVAQIKAKSNNYATYYAESVKGRFTISRDDSKNSLYLQMNSLKTEDTAVYYCRYVHYGAYYGVDAWGQGTTVTVSS VL: DIVMTQSPLSLPVTPGEPASISCRSSQSLVHSNRNTYLHWYQQKPGQAPRLLIYKVSSRFSGVPDRFSGSGSGTDFTLKISRVEAEDVGVYYCGQGTQVPYTFGQGTKLEIK
0.67 | GLS3000 N53Y (antibody, name in Kabat numbering, V domains shown, one-arm format as m2) VH: QVQLVESGGGVVQPGRSLRLSCAASGFTFSNAWMHWVRQAPGKGLEWVAQIKAKSNNYATYYAESVKGRFTISRDDSKNSLYLQMNSLKTEDTAVYYCRYVHYGAYYGVDAWGQGTTVTVSS VL: DIVMTQSPLSLPVTPGEPASISCRSSQSLVHSNRNTYLHWYQQKPGQAPRLLIYKVSYRFSGVPDRFSGSGSGTDFTLKISRVEAEDVGVYYCGQGTQVPYTFGQGTKLEIK
0.63 | GLS3000 P95A (antibody, name in Kabat numbering, V domains shown, one-arm format as m2) VH: QVQLVESGGGVVQPGRSLRLSCAASGFTFSNAWMHWVRQAPGKGLEWVAQIKAKSNNYATYYAESVKGRFTISRDDSKNSLYLQMNSLKTEDTAVYYCRYVHYGAYYGVDAWGQGTTVTVSS VL: DIVMTQSPLSLPVTPGEPASISCRSSQSLVHSNRNTYLHWYQQKPGQAPRLLIYKVSNRFSGVPDRFSGSGSGTDFTLKISRVEAEDVGVYYCGQGTQVAYTFGQGTKLEIK
0.81 | GLS3000 N53P (antibody, name in Kabat numbering, V domains shown, one-arm format as m2) VH: QVQLVESGGGVVQPGRSLRLSCAASGFTFSNAWMHWVRQAPGKGLEWVAQIKAKSNNYATYYAESVKGRFTISRDDSKNSLYLQMNSLKTEDTAVYYCRYVHYGAYYGVDAWGQGTTVTVSS VL: DIVMTQSPLSLPVTPGEPASISCRSSQSLVHSNRNTYLHWYQQKPGQAPRLLIYKVSPRFSGVPDRFSGSGSGTDFTLKISRVEAEDVGVYYCGQGTQVPYTFGQGTKLEIK
0.77 | GLS3000 N53Q (antibody, name in Kabat numbering, V domains shown, one-arm format as m2) VH: QVQLVESGGGVVQPGRSLRLSCAASGFTFSNAWMHWVRQAPGKGLEWVAQIKAKSNNYATYYAESVKGRFTISRDDSKNSLYLQMNSLKTEDTAVYYCRYVHYGAYYGVDAWGQGTTVTVSS VL: DIVMTQSPLSLPVTPGEPASISCRSSQSLVHSNRNTYLHWYQQKPGQAPRLLIYKVSQRFSGVPDRFSGSGSGTDFTLKISRVEAEDVGVYYCGQGTQVPYTFGQGTKLEIK
0.56 | GLS3000 N53T (antibody, name in Kabat numbering, V domains shown, one-arm format as m2) VH: QVQLVESGGGVVQPGRSLRLSCAASGFTFSNAWMHWVRQAPGKGLEWVAQIKAKSNNYATYYAESVKGRFTISRDDSKNSLYLQMNSLKTEDTAVYYCRYVHYGAYYGVDAWGQGTTVTVSS VL: DIVMTQSPLSLPVTPGEPASISCRSSQSLVHSNRNTYLHWYQQKPGQAPRLLIYKVSTRFSGVPDRFSGSGSGTDFTLKISRVEAEDVGVYYCGQGTQVPYTFGQGTKLEIK
1.58 | GLS3000 N53R (antibody, name in Kabat numbering, V domains shown, one-arm format as m2) VH: QVQLVESGGGVVQPGRSLRLSCAASGFTFSNAWMHWVRQAPGKGLEWVAQIKAKSNNYATYYAESVKGRFTISRDDSKNSLYLQMNSLKTEDTAVYYCRYVHYGAYYGVDAWGQGTTVTVSS VL: DIVMTQSPLSLPVTPGEPASISCRSSQSLVHSNRNTYLHWYQQKPGQAPRLLIYKVSRRFSGVPDRFSGSGSGTDFTLKISRVEAEDVGVYYCGQGTQVPYTFGQGTKLEIK
0.56 | GLS3000 N53V (antibody, name in Kabat numbering, V domains shown, one-arm format as m2) VH: QVQLVESGGGVVQPGRSLRLSCAASGFTFSNAWMHWVRQAPGKGLEWVAQIKAKSNNYATYYAESVKGRFTISRDDSKNSLYLQMNSLKTEDTAVYYCRYVHYGAYYGVDAWGQGTTVTVSS VL: DIVMTQSPLSLPVTPGEPASISCRSSQSLVHSNRNTYLHWYQQKPGQAPRLLIYKVSVRFSGVPDRFSGSGSGTDFTLKISRVEAEDVGVYYCGQGTQVPYTFGQGTKLEIK
0.37 | GLS3000 P95G (antibody, name in Kabat numbering, V domains shown, one-arm format as m2) VH: QVQLVESGGGVVQPGRSLRLSCAASGFTFSNAWMHWVRQAPGKGLEWVAQIKAKSNNYATYYAESVKGRFTISRDDSKNSLYLQMNSLKTEDTAVYYCRYVHYGAYYGVDAWGQGTTVTVSS VL: DIVMTQSPLSLPVTPGEPASISCRSSQSLVHSNRNTYLHWYQQKPGQAPRLLIYKVSNRFSGVPDRFSGSGSGTDFTLKISRVEAEDVGVYYCGQGTQVGYTFGQGTKLEIK

Source: patent US20220040297A1 (Chugai, published 2022)
